Test: soluble on expression in E. coli; label from the status in PepcDB or PDB records

Sequence	soluble on expression in E. coli
SGNRGVVYLGSGKVEVQKIDYPKMQDPRGKKIEHGVILKVVSTNICGSDQHMVRGRTTAQVGLVLGHEITGEVIEKGRDVENLQIGDLVSVPFNVACGRCRSCKEMHTGVCLTVNPARAGGAYGYVDMGDWTGGQAEYVLVPYADFNLLKLPDRDKAMEKIRDLTCLSDILPTGYHGAVTAGVGPGSTVYVAGAGPVGLAAAASARLLGAAVVIVGDLNPARLAHAKAQGFEIADLSLDTPLHEQIAALLGEPEVDCAVDAVGFEARGHGHEGAKHEAPATVLNSLMQVTRVAGKIGIPGLYVTEDPGAVDAAAKIGSLSIRFGLGWAKSHSFHTGQTPVMKYNRALMQAIMWDRINIAEVVGVQVISLDDAPRGYGEFDAGVPKKFVIDPHKTFSAA	soluble
SGPMDSRALRQGNRLLGNAEGCAALEITMSGPLLRFNTDAVIAVTGAHIPITLDGESCAMNTALLVRAGSTLALGTIAGAGVRSYLCVRGGLDVPDYLGSKSTFTLGQFGGHGGRALRAGDVLHIARLVDRTAGQKIADEQLDALQDVRQIRVIYGPHAAPEYFTESYIETFFATDWEVHFNSSRTGVRLIGPKPEWVRADGGEAGLHPSNIHDNPYAIGAVDFTGDMPVILGPDGPSLGGFVCPVTIIEADLWQLGQLKAGDKVRFYPVSVEACHAAMNSQGPLPQGPLNTSGSGL	not soluble
SGRPLEGQPLRALDLYPEPAFLRSGKDPKSSPASSPSFAVLGPEVRSTGGQAGSRRRPSAPCSQDRAAAEGAPALLGGSPSSGSPGHPPGSAFGVEAGCRALNVSEHARGGFALGLPFGLSGGAYLFLLLDGAGDPKPTPEAPISSADGRAWFPSESSWQLPQLPAGSTSGSEPRARPGLGPRQLPTGPRDGAAGQGPGRGLTARLGREREIDCGPRQAGHGGTATDTGRAGSGARHRPPRDRGTPGLRTH	soluble
SGRVQLFEISLSHGRVVYSPGEPLAGTVRVRLGAPLPFRAIRVTCIGSCGVSNKANDTAWVVEEGYFNSSLSLADKGSLPAGEHSFPFQFLLPATAPTSFEGPFGKIVHQVRAAIHTPRFSKDHKCSLVFYILSPLNLNSIPDIEQPNVASATKKFSYKLVKTGSVVLTASTDLRGYVVGQALQLHADVENQSGKDTSPVVASLLQKVSYKAKRWIHDVRTIAEVEGAGVKAWRRAQWHEQILVPALPQSALPGCSLIHIDYYLQVSLKAPEATVTLPVFIGNIAVNHAPVSPRPGLGLPPGAPPLVVPSAPPQEEAEAEAAAGGPHFLDPVFLSTKSHSQRQPLLATLSSVPGAPEPCPQDGSPASHPLHPPLCISTGATVPYFAEGSGGPVPTTSTLILPPEYSSWGYPYEAPPSYEQSCGGVEPSLTPES	soluble
SGSSTGDLVTRIQSAHRFDHDALFRFAADNVSGFPTNPSQFKVSQFGHGQSNPTFLIEVGSGSSLKRYVLRKKPPGKLLQSAHAVDREFQVLRALGEHTQVPVPKVFCLCTDPAVIGTAFYIMEFMEGRIFIDPKLPNVAPERRNAIYRATAKALASLHSADVDAIGLEKYGRRGNYCKRQIDRWFKQYLASTSEGKPERNPKMFELVDWLRKNIPAEDSTGATSGLVHGDFRIDNLVFHPSEDRVIGIIDWELSTLGNQMCDVAYSCMHYIVNVQLDKEHVSEGFETTGLPEGMLSMPEFLLEYCSASGKPWPAANWKFYVAFSLFRAASIYTGVYSRWLMGNASAGERARNTGVQANELVESALGYIARENVLPEHPPSVQRDVSPSYESLVDGSGRFIPNRKVLELRQKLIKFMETHIYPMENEFSKLAQSDMRWTVHPQEEKLKEMAKREGLWNLFVPVDSAARARRELAATENKHNLSGKSFDQLFGEGLTNLEYGYLCEIMGRSVWAPQVFNCGAPDTGNMEVILRYGNKEQISEWLIPLLEGRIRSGFAMTEPQVASSDATNIECSIRRQGDSYVINGTKWWTSGAMDPRCRVLILMGKTDFNAPKHKQQSMILVDMRTPGISVKRPLTVFGFDDAPHGHAEISFENVVVPAKNILLGEGRGFEIAQGRLGPGRLHHCMRLIGAAERGMELMAQRALSRKTFGKFIAQHGSFVSDLAKLRVELEGTRLLVLEAADHLDKFGNKKARGILAMAKVAAPNMALKVLDTAIQVHGAAGVSSDTVLAHLWATARTLRIADGPDEVHLGTIGKLELQRASKL	soluble
SHPDLNKLLELWPHIQEYQDLALKHGINDIFQDNGGKLLQVLLITGLTVLPGREGNDAVDNAGQEYELKSINIDLTKGFSTHHHMNPVIIAKYRQVPWIFAIYRGIAIEAIYRLEPKDLEFYYDKWERKWYSDGHKDINNPKIPVKYVMEHGTKIYGSGGSHPDLNKLLELWPHIQEYQDLALKHGINDIFQDNGGKLLQVLLITGLTVLPGREGNDAVDNAGQEYELKSINIDLTKGFSTHHHMNPVIIAKYRQVPWIFAIYRGIAIEAIYRLEPKDLEFYYDKWERKWYSDGHKDINNPKIPVKYVMEHGTKIYGSHHHHHH	soluble
SHSEAEESKEVAADVFNSKNLAVQAQKKILGKMVSKSIATTLIDDTSSEVLDELYRVTREYTQNKKEAEKIIKNLIKTVIKLAILYRNNQFNQDELALMEKFKKKVHQLAMTVVSFHQVDYTFDRNVLSRLLNECREMLHQIIQRHLTAKSHGRVNNVFDHFSDCEFLAALYNPFGNFKPHLQKLCDGINKMLDEENI	soluble
SIKNGILYLEDPVNHEWYPHYFVLTSSKIYYSEETSSDQGNEDEEEPKEASGSTELHSSLEVLFQGPNPAILEPEREHLDENSPLGDLLRGVLDVPACQIAIRPEGKNNRLFVFSISMPSVAQWSLDVAADSQEELQDWVKKIREVAQTA	soluble
SKELKVLVLCAGSGTSAQLANAINEGANLTEVRVIANSGAYGAHYDIMGVYDLIILAPQVRSYYREMKVDAERLGIQIVATRGMEYIHLTKSPSKALQFVLEHYQ	not soluble
SKGKLGEKISQFKIVEELKAKGLYAYFRPIQSKQDTEVKIDGRRVLMFGSNSYLGLTTDTRIIKAAQDALEKYGTGCAGSRFLNGTLDIHVELEEKLSAYVGKEAAILFSTGFQSNLGPLSCLMGRNDYILLDERDHASIIDGSRLSFSKVIKYGHNNMEDLRAKLSRLPEDSAKLICTDGIFSMEGDIVNLPELTSIANEFDAAVMVDDAHSLGVIGHKGAGTASHFGLNDDVDLIMGTFSKSLASLGGFVAGDADVIDFLKHNARSVMFSASMTPASVASTLKALEIIQNEPEHIEKLWKNTDYAKAQLLDHGFDLGATESPILPIFIRSNEKTFWVTKMLQDDGVFVNPVVSPAVPAEESLIRFSLMATHTYDQIDEAIEKMVKVFKQAEVETLI	soluble
SKHSNKPYDSFQDELEDYIKVQKARGLEPKTCFRRMRGEYLESCGYREEFDSRPRYRMFDQRLPSGTNHSYPRSCSSSQTEDRVPQWLPAHDKIRLNSLSYCQFTRDGFSEKPVPLNLSQQEYNCGSYSVESVVHKRLCSEHSTIDPQVSHRQMHQKRKKHVEEGREKQEERPKHERKRSSEEMDLNKHRSIQRKKTKAETETVQDGTEKLKNRKEKKTRDVSSKKEDRKRRKEKKEQGEERTEEEMLWDQSILGF	soluble
SKVKEGKDLIVGLDIGTSKIVAIVAEMKPEGGFEIIGLGSHLSRGLKKGVVVNIEATVNAIQRALEEVELMAGCRISEVYAGIAGNHIRGFNSHGMVAIKDKEVTQADVEKVMETAKAVNIPADQ	not soluble
SLAANMYRVGDYVYFENSSSNPYLIRRIEELNKTASGNVEAKVVCFYRRRDISNTLIMLADKHAKEIEEESETTVEADLTDKQKHQLKHRELFLSRQYESLPATHIRGKCSVALLNETESVLSYLDKEDTFFYSLVYDPSLKTLLADKGEIRVGPRYQADIPEMLLEGESDEREQSKLEVKVWDPNSPLTDRQIDQFLVVARAVGTFARALD	soluble
SLDGELDTQPLIEQLWQAGKRVYLPVLHPFSPGNLLFLHYHPQSALVTNRLNIREPRLDVRDVLPLAKLDVLVTPLVAFDEGGQRLGMGGGFYDRTLQNWQQHKILPVGYAHDCQLVEKLPVEEWDIPLPAVVTPSKIWEW	soluble
SLDRLYAKAMKSKYTKLLLENFLLSPYEMTDPAIMAGLQKNVYPKYDELKTLRGLEGVKKHLSYVREKQEPYSKGNIAKYLKKAIEQYLPTVKRQDID	soluble

Reference: the DeepSol protein solubility set
